# Test results published in IntAct's records for PubMed 31404830.
# B1: PRL-1 phosphatase (Drosophila melanogaster (Fruit fly)), O61722 (parent)
# chain: MSITMRQKDLRPAPALIEYKGMKFLITDRPSDITINHYIMELKKNNVNTVVRVCEPSYNTDELETQGITVKDLAFEDGTFPPQQVVDEWFEVLKDKYQQNPEACVAVHCVAGLGRAPVLVALALIELGLKYEAAVEMIRDKRRGAINAKQLSFLEKYKPKARLKHKNGHKNSCSVQ
# Variants of: B1
# Details: with uex_drome uex
row,effect of a mutation on the interaction,Variant
1,decreasing interaction strength,MSITMRQKDLRPAPALIEYKGMKFLITDRPSDITINHYIMELKKNNVNTVVRVCEPSYNTDELETQGITVKDLAFEAGTFPPQQVVDEWFEVLKDKYQQNPEACVAVHSVAGLGRAPVLVALALIELGLKYEAAVEMIRDKRRGAINAKQLSFLEKYKPKARLKHKNGHKNSCSVQ [D77A;C109S]
